The series is described as follows: collision cross section of modified peptide (TIMS, N2, iRT-aligned); higher = larger / more extended gas-phase ion. The gist of the method: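 Values are averages of 1–3 technical replicates of the most abundant feature for each charge state. Collision cross section was obtained from the Mason-Schamp equation after 1/K0 calibration with three reference ions and run-wise alignment to the median iRT peptide deviation. Synthetic peptide pools (iRT standard spiked 1:40) were separated on a 120-min nanoflow C18 gradient at 60 °C, analysed on a timsTOF Pro/HT (dda-PASEF, nitrogen, ~2.4 mbar) and identified with MaxQuant.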

Setting [1] is: charge state: 2, modification: Succinyl.
Setting [2] is: charge state: 3, modification: Succinyl.
The mark [3] stands for this setting: charge state: 3, modification: Trimethyl (K).
Where [4] appears, read: charge state: 2, modification: hydroxyisobutyryl.
Setting [5] is: charge state: 3, modification: hydroxyisobutyryl.
The mark [6] stands for this setting: charge state: 2, modification: Acetyl (K).
Setting [7] is: charge state: 2, modification: Biotin.
The mark [8] stands for this setting: charge state: 2, modification: Butyryl.
Setting [9] is: charge state: 3, modification: Butyryl.
Where [10] appears, read: charge state: 2, modification: Crotonyl.
The mark [11] stands for this setting: charge state: 2, modification: Dimethyl (K).
The mark [12] stands for this setting: charge state: 3, modification: Dimethyl (K).
[13] abbreviates: charge state: 2, modification: Formyl.
The mark [14] stands for this setting: charge state: 2, modification: Glutarylation.
Setting [15] is: charge state: 3, modification: Glutarylation.
Setting [16] is: charge state: 2, modification: GlyGly (K).
The mark [17] stands for this setting: charge state: 3, modification: GlyGly (K).
[18] abbreviates: charge state: 2, modification: Malonyl.
[19] abbreviates: charge state: 2, modification: Methyl (K).
Setting [20] is: charge state: 3, modification: Methyl (K).
[21] abbreviates: charge state: 2, modification: Trimethyl (K).
Where [22] appears, read: charge state: 2, modification: Propionyl.
[23] abbreviates: charge state: 2, modification: HexNAc (ST).
Setting [24] is: charge state: 3, modification: HexNAc (ST).

± gives the standard deviation.

Consider “SLEEEGAAHSGKR [_SLEEEGAAHSGK(Succinyl)R_]”, for which the collision cross section reads like this: under setting [1], 416.07 ± 1.8 Å²; under setting [2], 470.94 ± 2.7 Å².

On to “SLEEEGAAHSGKR [_SLEEEGAAHSGK(Trimethyl (K))R_]”, for which the collision cross section under setting [3] worked out at 465.19 ± 1.5 Å².

With “SLEEEGAAHSGKR [_SLEEEGAAHSGK(hydroxyisobutyryl)R_]”, the collision cross section under setting [4] is 421.1 ± 1.9 Å² and the collision cross section under setting [5] is reported as 479.68 ± 2.1 Å².

The sequence “SLFFGGKGAPLQR [_SLFFGGK(Acetyl (K))GAPLQR_]” came in with a collision cross section under setting [6] of 401.47 ± 0.85 Å².

As for SLFFGGKGAPLQR [_SLFFGGK(Biotin)GAPLQR_], under setting [7], the collision cross section amounted to 419.13 Å².

In the case of “SLFFGGKGAPLQR [_SLFFGGK(Butyryl)GAPLQR_]”, the collision cross section is, setting by setting: under setting [8], 406.8 ± 0.75 Å²; under setting [9], 492.14 ± 2.1 Å².

Under setting [10], “SLFFGGKGAPLQR [_SLFFGGK(Crotonyl)GAPLQR_]” showed a collision cross section of 404.03 ± 0.35 Å².

Regarding “SLFFGGKGAPLQR [_SLFFGGK(Dimethyl (K))GAPLQR_]”, the collision cross section is on record as 408.95 ± 0.54 Å² under setting [11] and 451.66 ± 1.6 Å² under setting [12].

SLFFGGKGAPLQR [_SLFFGGK(Formyl)GAPLQR_] displayed a collision cross section under setting [13] of 399.67 ± 0.55 Å².

For the sequence “SLFFGGKGAPLQR [_SLFFGGK(Gluratylation)GAPLQR_]”, the collision cross section came to 407.53 ± 0.99 Å² under setting [14] and 479.63 ± 1.2 Å² under setting [15].

With “SLFFGGKGAPLQR [_SLFFGGK(GlyGly (K))GAPLQR_]”, the collision cross section runs as follows: under setting [16], 414.92 ± 0.35 Å²; under setting [17], 468.6 ± 1.1 Å².

Turning to “SLFFGGKGAPLQR [_SLFFGGK(Malonyl)GAPLQR_]”, under setting [18], the collision cross section is listed as 399.96 ± 0.61 Å².

In the case of “SLFFGGKGAPLQR [_SLFFGGK(Methyl (K))GAPLQR_]”, the collision cross section is, setting by setting: under setting [19], 405.87 ± 0.92 Å²; under setting [20], 448.66 ± 4 Å².

The sequence “SLFFGGKGAPLQR [_SLFFGGK(Succinyl)GAPLQR_]” yielded a collision cross section under setting [1] of 401.28 ± 0.38 Å².

“SLFFGGKGAPLQR [_SLFFGGK(Trimethyl (K))GAPLQR_]”: the collision cross section reads like this: under setting [21], 413.8 ± 0.016 Å²; under setting [3], 456.34 ± 1.8 Å².

Turning to “SLFFGGKGAPLQR [_SLFFGGK(hydroxyisobutyryl)GAPLQR_]”, the collision cross section is reported as 408.12 ± 0.55 Å² under setting [4] and 482.11 Å² under setting [5].

Take “SLGEPAAGEGSAKR [_SLGEPAAGEGSAK(Acetyl (K))R_]”: the collision cross section is, setting by setting: under setting [6], 382.38 ± 0.43 Å²; (charge state: 3, modification: Acetyl (K)) 484.93 ± 0.63 Å².

For “SLGEPAAGEGSAKR [_SLGEPAAGEGSAK(Biotin)R_]”, under setting [7], the collision cross section is listed as 403.03 Å².

Regarding “SLGEPAAGEGSAKR [_SLGEPAAGEGSAK(Butyryl)R_]”, the collision cross section reads like this: under setting [8], 388.15 ± 2 Å²; under setting [9], 487.74 ± 4.3 Å².

Take “SLGEPAAGEGSAKR [_SLGEPAAGEGSAK(Crotonyl)R_]”: the collision cross section was determined as 387.18 ± 0.89 Å² under setting [10] and 487.34 ± 1.3 Å² (charge state: 3, modification: Crotonyl).

Consider “SLGEPAAGEGSAKR [_SLGEPAAGEGSAK(Dimethyl (K))R_]”, for which the collision cross section by setting is: under setting [11], 415.22 ± 2 Å²; under setting [12], 473.88 ± 2.6 Å².

“SLGEPAAGEGSAKR [_SLGEPAAGEGSAK(Formyl)R_]”: the collision cross section was 375.91 ± 0.55 Å² under setting [13] and 481.8 Å² (charge state: 3, modification: Formyl).

In the case of “SLGEPAAGEGSAKR [_SLGEPAAGEGSAK(Gluratylation)R_]”, the collision cross section under setting [14] worked out at 384.54 ± 0.66 Å² and the collision cross section under setting [15] stood at 479.54 ± 1 Å².

Consider “SLGEPAAGEGSAKR [_SLGEPAAGEGSAK(GlyGly (K))R_]”, for which the collision cross section was 411.44 ± 1.9 Å² under setting [16] and 486.35 ± 2.8 Å² under setting [17].

Sequence “SLGEPAAGEGSAKR [_SLGEPAAGEGSAK(Malonyl)R_]” came in with a collision cross section under setting [18] of 366.04 ± 1.1 Å².

Regarding “SLGEPAAGEGSAKR [_SLGEPAAGEGSAK(Methyl (K))R_]”, the collision cross section reads like this: under setting [19], 408.5 ± 0.81 Å²; under setting [20], 480.43 ± 2.6 Å².

In the case of “SLGEPAAGEGSAKR [_SLGEPAAGEGSAK(Propionyl)R_]”, the collision cross section runs as follows: under setting [22], 383.35 ± 1.5 Å²; (charge state: 3, modification: Propionyl) 488 ± 0.51 Å².

In the case of “SLGEPAAGEGSAKR [_SLGEPAAGEGSAK(Succinyl)R_]”, the collision cross section reads like this: under setting [1], 381.88 ± 0.8 Å²; under setting [2], 476.57 ± 0.7 Å².

As to “SLGEPAAGEGSAKR [_SLGEPAAGEGSAK(Trimethyl (K))R_]”, the collision cross section by setting is: under setting [21], 404.92 ± 19 Å²; under setting [3], 462.02 ± 2.7 Å².

Regarding “SLGEPAAGEGSAKR [_SLGEPAAGEGSAK(hydroxyisobutyryl)R_]”, the collision cross section reads like this: under setting [4], 389.47 ± 1.5 Å²; under setting [5], 485.86 ± 2.8 Å².

For “SLIGKVDGTSHVTGK [_SLIGKVDGT(HexNAc (ST))SHVTGK_]”, under setting [23], the collision cross section is given as 438.41 Å².

In turn, “SLIGKVDGTSHVTGK [_SLIGKVDGTSHVT(HexNAc (ST))GK_]” yielded a collision cross section under setting [24] of 501.68 ± 0.18 Å².

The sequence SLKLNTAEDAK [_SLK(Acetyl (K))LNTAEDAK_] displayed a collision cross section under setting [6] of 373.49 ± 1.6 Å².

For SLKLNTAEDAK [_SLK(Biotin)LNTAEDAK_], the collision cross section under setting [7] came out at 397.96 Å².

As for SLKLNTAEDAK [_SLK(Butyryl)LNTAEDAK_], the collision cross section under setting [8] came out at 378.05 ± 1.5 Å².

On to SLKLNTAEDAK [_SLK(Crotonyl)LNTAEDAK_], for which, under setting [10], the collision cross section is 378.17 ± 0.26 Å².

Take “SLKLNTAEDAK [_SLK(Dimethyl (K))LNTAEDAK_]”: the collision cross section is on record as 369.7 ± 0.36 Å² under setting [11] and 468.91 ± 1.6 Å² under setting [12].

SLKLNTAEDAK [_SLK(Formyl)LNTAEDAK_] gave a collision cross section under setting [13] of 369.44 ± 0.39 Å².

In the case of “SLKLNTAEDAK [_SLK(Gluratylation)LNTAEDAK_]”, the collision cross section under setting [14] is given as 381.67 ± 0.53 Å².

SLKLNTAEDAK [_SLK(GlyGly (K))LNTAEDAK_]: the collision cross section is, setting by setting: under setting [16], 394.52 ± 0.87 Å²; under setting [17], 458.17 ± 2 Å².

Turning to SLKLNTAEDAK [_SLK(Malonyl)LNTAEDAK_], under setting [18], the collision cross section worked out at 374.06 ± 0.0012 Å².

For the sequence SLKLNTAEDAK [_SLK(Methyl (K))LNTAEDAK_], the collision cross section under setting [19] worked out at 364.71 ± 0.36 Å² and the collision cross section under setting [20] is recorded as 470.64 ± 4.7 Å².

The sequence SLKLNTAEDAK [_SLK(Propionyl)LNTAEDAK_] showed a collision cross section under setting [22] of 376 ± 0.94 Å².

Sequence SLKLNTAEDAK [_SLK(Succinyl)LNTAEDAK_] showed a collision cross section under setting [1] of 377.2 ± 0.87 Å².

In the case of “SLKLNTAEDAK [_SLK(Trimethyl (K))LNTAEDAK_]”, the collision cross section is, setting by setting: under setting [21], 378.59 ± 0.02 Å²; under setting [3], 461.43 ± 2.4 Å².

“SLKLNTAEDAK [_SLK(hydroxyisobutyryl)LNTAEDAK_]” came in with a collision cross section under setting [4] of 378.64 ± 0.28 Å².

For “SLYASSPGGVYATR [_S(HexNAc (ST))LYASSPGGVYATR_]”, the collision cross section under setting [24] was 478.28 ± 0.91 Å².

For the sequence “SLYASSPGGVYATR [_SLYAS(HexNAc (ST))SPGGVYATR_]”, under setting [23], the collision cross section is recorded as 421.13 ± 0.62 Å².

“SNEEGSEEKGPEVR [_SNEEGSEEK(Acetyl (K))GPEVR_]” came in with a collision cross section under setting [6] of 400.7 ± 1 Å².

Consider “SNEEGSEEKGPEVR [_SNEEGSEEK(Butyryl)GPEVR_]”, for which the collision cross section is, setting by setting: under setting [8], 407.11 ± 0.23 Å²; under setting [9], 490.17 Å².

“SNEEGSEEKGPEVR [_SNEEGSEEK(Crotonyl)GPEVR_]”: the collision cross section under setting [10] is 406.51 ± 0.28 Å².

“SNEEGSEEKGPEVR [_SNEEGSEEK(Dimethyl (K))GPEVR_]”: the collision cross section by setting is: under setting [11], 393.74 ± 1.1 Å²; under setting [12], 467.17 ± 0.73 Å².

For “SNEEGSEEKGPEVR [_SNEEGSEEK(Formyl)GPEVR_]”, the collision cross section under setting [13] is given as 397.09 ± 0.55 Å².

“SNEEGSEEKGPEVR [_SNEEGSEEK(Gluratylation)GPEVR_]” displayed a collision cross section under setting [14] of 407.15 ± 0.96 Å² and a collision cross section under setting [15] of 470.21 Å².

Consider “SNEEGSEEKGPEVR [_SNEEGSEEK(GlyGly (K))GPEVR_]”, for which the collision cross section reads like this: under setting [16], 409.13 ± 2.5 Å²; under setting [17], 474.76 ± 1.1 Å².

As to “SNEEGSEEKGPEVR [_SNEEGSEEK(Malonyl)GPEVR_]”, under setting [18], the collision cross section is 402.09 ± 1.6 Å².

For “SNEEGSEEKGPEVR [_SNEEGSEEK(Methyl (K))GPEVR_]”, the collision cross section under setting [19] amounted to 394.85 ± 7.3 Å² and the collision cross section under setting [20] is 481.38 ± 2.6 Å².

“SNEEGSEEKGPEVR [_SNEEGSEEK(Propionyl)GPEVR_]”: the collision cross section under setting [22] was determined as 404.8 ± 1.3 Å².

“SNEEGSEEKGPEVR [_SNEEGSEEK(Succinyl)GPEVR_]”: under setting [1], the collision cross section came out at 403.42 ± 0.55 Å².

“SNEEGSEEKGPEVR [_SNEEGSEEK(Trimethyl (K))GPEVR_]”: the collision cross section is, setting by setting: under setting [21], 400.43 Å²; under setting [3], 464.15 ± 1.8 Å².

These data come from the supplement of paper PMC10598134.
